Patent US20090275083A1

Tests used:
[1] = biological target: T1, Fusarium oxysporum lipase (FoL) variant [change] (Fusarium oxysporum); assay: cell-based or functional assay
T1 chain: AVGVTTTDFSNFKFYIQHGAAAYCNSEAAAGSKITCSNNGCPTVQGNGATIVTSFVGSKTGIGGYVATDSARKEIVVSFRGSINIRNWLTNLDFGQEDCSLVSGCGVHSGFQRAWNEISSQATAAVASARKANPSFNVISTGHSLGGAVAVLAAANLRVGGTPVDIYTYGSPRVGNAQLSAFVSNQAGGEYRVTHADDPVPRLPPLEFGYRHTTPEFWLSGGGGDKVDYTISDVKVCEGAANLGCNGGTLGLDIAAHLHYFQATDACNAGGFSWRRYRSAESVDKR

[2] = biological target: T2, Fusarium oxysporum lipase (FoL), wild type (Fusarium oxysporum); assay: cell-based or functional assay
T2 chain: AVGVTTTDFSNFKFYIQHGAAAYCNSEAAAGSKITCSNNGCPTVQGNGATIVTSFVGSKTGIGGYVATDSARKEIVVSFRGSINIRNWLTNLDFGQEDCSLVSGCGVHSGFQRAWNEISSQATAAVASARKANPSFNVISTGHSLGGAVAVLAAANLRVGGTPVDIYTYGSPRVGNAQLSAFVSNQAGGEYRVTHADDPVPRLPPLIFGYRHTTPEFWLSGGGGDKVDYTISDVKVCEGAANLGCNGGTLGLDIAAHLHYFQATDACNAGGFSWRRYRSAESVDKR

ATMTDAELEKKLNSYVQMDKEYVKNNQARS (modifications not checked) [Peptide P0 (wildtype FoL C-terminal peptide)] gave an IC50 (half maximal inhibitory concentration; p-NP butyrate hydrolysis) (peptide/lipase ratio) [1] of 287 and an IC50 (half maximal inhibitory concentration; p-NP butyrate hydrolysis) (peptide/lipase ratio) [2] of 913.
